From patent US20240383953A1, “NOVEL NAN[…] NANOG PRION-LIKE REPEATS” (BAYLOR COLLEGE OF MEDICINE, priority 2021, published 2024)

Assays:
[1] = ThT fluorescence aggregation kinetics of NANOG CTD; assay type: physicochemical, human
[2] = Gel-like condensate formation of NANOG CTD; assay type: physicochemical, human; conditions: absence of crowding agents

B1: NANOG CTD: C-terminal domain construct of human NANOG, contains the WR prion-like domain (protein)
chain: QKNNWPKNSNGVTQKASAPTYPSLYSSYHQGCLVNPTGNLPMWSNQTWNNSTWSNQTQNIQSWSNHSWNTQTWCTQSWNNQAWNSPFYNCGEESLQSCMQFQPNSPASDLEAALEAAGEGLNVIQQTTRYFSTPQTMDLFLNYSMNMQPEDV
For B1, the “ThT aggregation time constant (1/R)” value ([1]; 1.2 μM CTD (n=9)) was 4.8 ± 0.2 min, the “ThT aggregation time constant (1/R)” value ([1]; 2.4 μM CTD (n=6)) was 9.5 ± 0.1 min and the “concentration at which gel-like condensates form” value [2] was 5 µM.
